Data published in patent US20240425848.

Target: histone H3 trimethylated at lysine 9 (H3K9me3) in native chromatin of Caki-1 cells (UniProt P68431)

Substance	Ec: global enrichment of the ATAC-seq tagmentation signal over H3K9me3-marked regions, log2(ratio) over genomic Input, Caki-1 [Continued) e]	Mc: modal enrichment of the ATAC-seq tagmentation signal over H3K9me3-marked regions, log2(ratio) over genomic Input, Caki-1 [Continued) e]	stated: no tagmentation signal over H3K9me3 ChIP-seq domains (ATAC-seq on permeabilized Caki-1 nuclei)	stated: tagmentation signal over H3K9me3 ChIP-seq domains (ATAC-seq on permeabilized Caki-1 nuclei)	tagmentation of native chromatin on permeabilized nuclei (ATAC-seq)	Ec: global enrichment of the ATAC-seq tagmentation signal over H3K9me3-marked regions, log2(ratio) over genomic Input, Caki-1; subscript printed as 0, first E line of the box	GET-seq, sequential Tn5 then TnH tagmentation, compared with ChIP-seq profiles	Mc: modal enrichment of the ATAC-seq tagmentation signal over H3K9me3-marked regions, log2(ratio) over genomic Input, Caki-1; subscript printed as 0, first M line of the box, agrees with the mode of t	TnH ATAC-seq compared with H3K9me3 and H3K4me3 ChIP-seq	enrichment of tagmentation signal over H3K9me3-marked regions, compared among TnH #1-4	scGET-seq pseudobulk compared with H3K9me3 and H3K4me3 ChIP-seq	stated: tagmentation profile follows the H3K9me3 ChIP-seq profile (ATAC-seq, Caki-1)	stated: tagmentation profile follows the H3K9me3 ChIP-seq profile (bulk ATAC-seq with TnH alone and scGET-seq pseudo-bulk, Caki-1) [Continued) g]
Nextera	Ec= -3.16	Mc= -0.89	Nextera track (scale 0-9.3): near zero over the H3K9me3 domain at about 42.4-43.4 Mbp and only small spikes at about 43.8-44.6 Mbp of Chr. 19; peaks where the H3K4me3 track has peaks	–	–	–	–	–	–	–	–	–	–
TnH #1: 93aaCD (HP1α)-3×(TGS)-Tn5	Ec= 0.01	Mc= 0.19	–	TnH#1 track (scale 0-6.6): continuous raised signal over the H3K9me3 domain at about 42.4-43.4 Mbp of Chr. 19, where the Tn5 and Nextera tracks are near zero, and lower continuous signal at about 43.8-44.6 Mbp; also sharp peaks at H3K4me3 positions	hybrid Tn5 constructs indeed cut and inserted oligos in regions enriched for H3K9me3	–	–	–	–	–	–	–	–
TnH #2: 93aaCD (HP1α)-5×(TGS)-Tn5	Ec= -0.41	Mc= 0.07	–	TnH#2 track (scale 0-7.7): signal above baseline over the H3K9me3 domain at about 42.4-43.4 Mbp of Chr. 19, where the Tn5 and Nextera tracks are near zero; the sharp peaks at H3K4me3 positions stand out more than in TnH#3 and TnH#1	hybrid Tn5 constructs indeed cut and inserted oligos in regions enriched for H3K9me3	–	–	–	–	–	–	–	–
TnH #3: 112aaCD (HP1α)-3×(TGS)-Tn5	Ec= 0.25	Mc= 0.31	–	TnH#3 track (scale 0-8.0): continuous raised signal over the H3K9me3 domain at about 42.4-43.4 Mbp of Chr. 19, where the Tn5 and Nextera tracks are near zero, and lower continuous signal at about 43.8-44.6 Mbp; also sharp peaks at H3K4me3 positions (e.g. about 45.5 Mbp)	hybrid Tn5 constructs indeed cut and inserted oligos in regions enriched for H3K9me3	E0= 0.25	TnH mimicked more closely H3K9me3 data, and to a lesser extent H3K4me3	M0= 0.31	TnH captures both H3K4me3- and H3K9me3-enriched regions, unlike Tn5 which closely matches H3K4me3 profiles	We identified the construct TnH #3, from now on TnH, as the most efficient	TnH was able to target regions positive for H3K9me3 as well as H3K4me3	TnH track (scale 0-15): broad raised signal where the H3K9me3 track has its domains, highest at about 54.5-55.7 Mbp and raised at about 59-62.5 Mbp of Chr.12, where the Tn5 track is near zero; Input (scale 0-10) flat near 0	tnH track (scale 0-15): broad raised signal of about half the scale or more at about 33-35, 36.3-37.5 and 38.0-38.9 Mbp of chr1, over the H3K9me3 domains; tnH pseudobulk track (scale 0-15): the same three domains raised, somewhat lower; both also show small peaks at H3K4me3 positions; Input (scale 0
TnH #4: 112aaCD (HP1α)-5×(TGS)-Tn5	Ec= -0.55	Mc= 0.07	–	TnH#4 track (scale 0-2.7): signal above baseline over the H3K9me3 domain at about 42.4-43.4 Mbp of Chr. 19, where the Tn5 and Nextera tracks are near zero; the sharp peaks at H3K4me3 positions stand out more than in TnH#3 and TnH#1	hybrid Tn5 constructs indeed cut and inserted oligos in regions enriched for H3K9me3	–	–	–	–	–	–	–	–
